Laboratory results as given in the DeepSol protein solubility set.

experiment: soluble on expression in E. coli; label from the status in PepcDB or PDB records

Row | Sequence | soluble on expression in E. coli
1 | MGSDKIHHHHHHMNDSATQLTSTGSLTLRHLEAVTMDKAPTFTVKRIAFDEHYLPAENTRITTNFANLARGANRQQNLRNTLTMINNRFNALAHWDNPEHDRYRVELDIISVEMNLESAQYGNALPLIEILKTYIVDRKNNTRLEGMVGNNFSSYVRDYDFSVLLLEHNKHRSTFSTPDHFGELHGNLFKCFVNSQTYQEHFSKPPVICLSVSSSRTYLRTENQHPVLGVEYQQDEYSLTDEYFKKMGLTVRYFMPPNSVAPLAFYFAGDLLADYTDLELISTISTMDTFQKIYRPEIYNANSPAGKAYQPSLKNQDYSLTRIVYDREERSRLAIEQGKFAEEQFVKPYQATLAQWSAQYAR | not soluble
2 | MSLSKKTQINLKIERAKEEDLPKLVDLYLRAYKGLEEYAYTHPKDVKSYLKWLWNRDKEGIFLAKVDGKIVGFGAGDANWFSRREGKRVGAIHEIVVDPEYQGHGVGTALMNTILEYFKKKGLDTAELWVGDENYKAINFYKKFGFQESGRYNYWIRMIKGIITITTDPNSSSVDKLAAALEHHHHHH | soluble
3 | MGSDKIHHHHHHMMKLSTMKKVVATVDKKWRSPLAEFILERWGFDRHSVFYWRASANFIFMFQHHGKKYYLRFNDSCERNLTLIKEELKLVQYLGSQALAIAQPVLSKNNNLVEVVITPIGTFYAVVFEALDGEHLSFEEMNEEQLFLWGEMLGTIHENLKNVPNDLAIKRPSWKDDLEKVKEWIPSNEIAAMKELEMISEWADQLPITKENFGIIHYDFELDNVRFNEITIGALDFDDCAYYWYVADIVYALRDAGKFRVTTPAIKTFIKGYKSSTFLEEELLEEANGFERLHHLVSFARLLRSVDKDYSKEEPGYLMDLRKNLVSLINNYRLSFEQNHK | not soluble
4 | MEIRVKCRCGEEECSEWAIVELQGVVETQASFQGSIQNLEIGRLCHSDSSQGTYTFTVGYHELVGSKVTLKKPLLVLKKLQFDEVSGKATELEVVGIIRTKILFKTRPKPLISGNNNLSLFCS | not soluble
5 | MGSDKIHHHHHHMQSIPHVDMRRYQNDFDAFTQDVGNGYEKYGFIALTQHGVDTALIERALDTCRELFALPEDVKKQYHRPGQGGARGYTPFGTEVAKDAKHVDLKEFWHVGREVEGEPAYPQLLPNVWPQELPKFKDDMLAIYAALDNLGNQVLEALSVYLGQPKDFFRNKVNNGNSILRPLHYPPIIDEDTPSVRAGAHEDINVLTLLVGSREPGLEVLAKDGTWVPVTIIEGAIICNVGDMLQRLTNHVLPSTTHRVVNPPAPFNEKSRYSIPFFLHFNPDVMITPLESCISDENPQRDEPITADDYLMQRLREIGLIKD | not soluble
6 | MNTFGTRLKFTSFGESHGVAVGCIIDGMPAGVKFDEEFLQNELDKRKGGSKFATPRKESDKAQVLSGVFEGYTTGHPIAIVVFNENAHSKDYDNLKDLFRPAHADFTYFYKYGIRDHRGGGRSSARESVARVAGGAVAAMLLREFDICVQSGVFGVGTFVSNLKEEEFDFEFAKKSEIFCLDPKLESDFKNEILNARNSKDSVGAAVFTKVSGMLIGLGEVLYDKLDSKLAHALMGINAVKAVEIGEGINASKMRGSCNNDALKDGKFLSNHSGGILGGISNGENLILKTYFKPTPSIFAKQESIDKFGNNLKFELKGRHDPCVGVRGSVVASAMVRLVLADCLLLNASANLNNLKNAYGLKLEHHHHHH | soluble
7 | APTLISLLEVIEPEVLYSGYDSTLPDTSTRLMSTLNRLGGRQVVSAVKWAKALPGFRNLHLDDQMTLLQYSWMSLMAFSLGWRSYKQSNGNMLCFAPDLVINEERMQLPYMYDQCQQMLKISSEFVRLQVSYDEYLCMKVLLLLSTVPKDGLKSQAVFDEIRMTYIKELGKAIVKREGNSSQNWQRFYQLTKLLDSMHEMVGGLLQFCFYTFVNKSLSVEFPEMLAEIISNQLPKFKAGSVKPLLFHQK | soluble
8 | MGSDKIHHHHHHMKKIRFAAIGLAHNHIYDMCQQLIDAGAELAGVFESDSDNRAKFTSLFPSVPFAASAEQLITDASIDLIACAVIPCDRAELALRTLDAGKDFFTAKPPLTTLEQLDAVQRRVAETGRKFAVYFNERINVDSALFAGELVQRGEIGRVIQTMGVGPHRERGARPDWFYQKRQYGGILCDIGIHQIEQFLYFTGNTNARVVTSQTANYHHPHHPEFEDFGDAMLLGDNGATGYFRCDWFTPDGLSVWGDGRLTILGTEGYIEIRKYVDLTRGESNVVYLVNGKGEQRFTPAGSVERAFFPDFLRDCRERTENAMSQSHIFKATELSILAQQAANKIA | not soluble
9 | MSLARQNRFDRTSFQTQIIDLSHDGRGVARPHGEGDKVTFVTGALPGEVVIVEPVARNRHFDEARVVEVLQASPQRVIPRCSHFGVCSGCVLQHLAEDAQVVSKQRVLLESLERIGRVSPERVLPALAAESWGYRRKGRFSVRWVEKKGRTLVGFREHDPRFVADVSVCHTVVPQVGEKIALLATLLNSLDGRRDVPQIEFIAGDAVVALTVRHLQPLSEADRLALIEFGKEHGIAIFLQSGGVESVRLLWPDEVLLAFRLKPWDVEFVFRPLDFIQINGGLNEKMIAHALDLLGAGFGERVLDLFCGLGNFTLPLARTVDEVVGVEGDIGLVERARENARRNGLGNAEFFVADLTRDQRDAPWMRQGFDKLLLDPPRSGAIEVLKQLPLKMFERIVYVSCHPGSLARDADFLVNEQGFVLRAVGAMDMFPHTAHVESIAVFDRCEGHHHHHH | soluble
10 | MGSDKIHHHHHHMFSSQKLKERRKKLGLSQAQTADKLGISRPSYFNWEIGKTKPNQKNLDKLAHLLKVDSAYFLSQHDIVEIYTRLNESNKTKTLKYSQYLLEQQDKERNLMKNKRYPYRVYEKLSAGTGYSYFGDGNFDTVFYDEEIDHDFASWIFGDSMEPIFLNGEVALIKQTGFDYDGAIYAIDWDGQTYIKKVYREETGLRLVSLNKKYADKFAPYDENPRIIGLIVGNFIPLEG | not soluble
11 | MAGAKHIIDTSFLTQLDRYAIPLSRRVTAVHTGSHQSTRTGAGLDIIDHRKYNQGDSLKRIDWNLYARTEKLYIRRFEEDKNLNMVILLDASSSMLFPDNTPNKFEYAATVAAGVSYIVMKHNDVYTIATFADDVDYTKSHKGRDDFLRTIDNLTQIPVSGTTKLADCADSIYPRIKSKSMVLIMSDFLDNLDSVQKAVNRLSRHELVIVHIYDENEINLPESVDGTVKFIDSETGEEISFTVGAGFKKEYASEYSKHMAELEKIAYDFKIPYFRVSIKNEPFDTVLKIIGEG | not soluble
12 | MGHHHHHHGGHMSLTKKLHIKTWGCQMNEYDSSKMADLLDATHGYQLTDVAEEADVLLLNTCSIREKAQEKVFHQLGRWKLLKEKNPDLIIGVGGCVASQEGEHIRQRAHYVDIIFGPQTLHRLPEMINSVRGDRSPVVDISFPEIEKFDRLPEPRAEGPTAFVSIMEGCNKYCTYCVVPYTRGEEVSRPSDDILFEIAQLAAQGVREVNLLGQNVNAWRGENYDGTTGSFADLLRLVAAIDGIDRIRFTTSHPIEFTDDIIEVYRDTPELVSFLHLPVQSGSDRILNLMGRTHTALEYKAIIRKLRAARPDIQISSDFIVGFPGETTEDFEKTMKLIADVNFDMSYSFIFSARPGTPAADMVDDVPEEEKKQRLYILQERINQQAMAWSRRMLGTTQRILVEGTSRKSIMELSGRTENNRVVNFEGTPDMIGKFVDVEITDVYPNSLRGKVVRTEDEMGLRVAETPESVIARTRKENDLGVGYYQPEGGS | soluble
13 | AHHHHHHGSRVVKKIGLIGGMTPESTCYYYRKYIEISRKKFRKYEYPELLIYSINFRDFFMNPEGWEGRKRILINAAKALERAGAELIALTANTPHIVFDDIQKEISVPMVSIIDAVAEEILSHGLKKVLLLETKTTMSSGFYVNALKNKGLEVVVPNEEEQEELNRIIFEELAFENLKSKRWIIDLIERYAKEEGVEGVILGCTELPLAVKRGDVSIEVFDSAEIHIKKLIEVASQSI | not soluble
14 | PQLDEARTNGLMKTLFPHQVLSTIQASRILKTYNGVVIADSTGLGKTRVAINLAVMAINDGRNPLLIAPKSALETTWKDEMDKTHVHIDSKRSEYLSQHPDEAIKEIQGKDFIIVDEAHYFKSPGSNRYSVLRDLMAAGQKQIVLLTATP | not soluble
15 | MLSFRNWWAREDSNPRPPGYEPGALPTELRAHTAIRLYSNKTPLSRSVISMKKDPIKEMLVKYPRILVIKAALKILKDGNKIDRERIEKTIVKIMTKKEG | not soluble
16 | MSLSIKMRLGKEFLIDDLKRIEAMRNHLADNIMLMADANEAWRIDQAVIAFKEIEKFNLVWLEEPIKPDDFKGYSYLRSLGKIPIAAGENLHNLAEFNQLIDVNGVDFLEPDLTTCGGITPFMKVAKLAEVNNLPVCSHGVHELHVHLLASCPNASYLEFHAWRIDEFIDSPLKVLNGYTEAPDLPGHGINFDFEKVEKYNVGEGHHHHHH | not soluble
17 | MGSDKIHHHHHHTCSACIQYHESCAWCGAPMFDEKKPYARCDSRAKLMEHGCPNSYIEDPATKLDITEDSKLSDQGQVESEEEAVQIKPQEMYVEIRPKSRVRFNVTYRQAVDYPVDLYYLMDLSYSMKDDKQKLSELGDLLAERMRTVTKNFRLGFGSFIDKKLMPFIDPRIEKQLSPCPTPCAEPYGFKHQMSLTTNTAKFKAEVDKAEISGNLDAPEGGFDAVVQALACNKTIGWRERARKMIVFSTDAGFHFAGDGRLAGVVEPNDGTCHLDREGYYTETLNQDYPSIALLHQMIKDRKANVIFAVTKNNQDLYTQLSNALPDVSSSVGVLANDSRNIVDLIEKEYLKISEKIIMVDNANASEGLKLTYRSMCLDGTTLKDTNVCEGIRVGDEVQFEVTLENTHCIDKRDFVLRIGPSGLDETLIVNVKVLCDC | not soluble
18 | MTIGQVNGRARIKSECGKDQKCMPLEDKWLLVPAFLKVRGLVKQHLVSFDHFVQEEIRSIMLSNQKITSDANPNFYLKYLDIRIGKPSSEEGLNMTHDKITPQECRLRDMTYSAPISVDIEYTRGNQRVFKKDLIIGRMPIMLRSSKCILRDLAEEELARVQECPYDPGGYFVVKGSEKVILIQEQLSKNRIMVGRNSSKELQCEVLSSTSERKSKTYVTMKKGKYSVRHNQLTDDVPVSIIFKAMGVESDFDIVSTIGHEEKYVSAFAQTLEESINAGVYTQQQALAYVTSKVKARKFTPFGSLPGTSVSVLTPPKEHEAVDFLSNSMITHIACPDGNFKMKAIYLGLMTRRLIQTELGENGLDDRDFYGNKRLELAGSLLSLLFEDVFKRFNSELKRIADNALMKTMAAPLDIVKHMRQDMITNTIVNAMSTGNWIIKRFRMERLGVTQVLSRLSYISALGMMTRINSTFEKTRKVSGPRSLQPSQWGMLCPSDTPEGEACGLVKNLALISHITTDSDEKPVLRLLLNSGVEDLHNVHFSHVNKPENTLIFLNGVLIGTAVDPERVVKAVRDLRRSGLLSEFVSVSRSLTNRSVFISSDGGRLCRPYIIVKNGTPMLTQAHVQELKEGKMIFEDFVDDGIVEYLDVNEMNDALIAVYGREIGPETTHLEIEPFTLLGVCAGLIPYPHHNQSPRNTYQCAMGKQAMGTIAYNQQKRIDSIMYLLCYPQRPLVKSKTIELTNFEKLPAGANGIIAVMSYSGYDIEDALVLNKASLDRGYGRCLVYKHVKGTAKKYPNQTFDRLLGPALDPNTRKPIFKHKNLDQEGIVFAGARIMPKQTIINKHMPVVSGESGPGASASANTIGIAGRQVDYKDVSITYKTPTPSYAERVLLTYNEDEAHLFKVLLRQTRRPELGDKFSSRHGQKGVCGLIAQQEDMPFNDLGMVPDMIMNPHGYPSRMTVGKLMELLSGKAGVVNGTYHYGTAFGGDQVKDVCEELAACGYNYMGKDMLTSGITGQPLSAYIYFGPIYYQKLKHMVLDKMHARARGPRAALTRQPTEGRSREGGLRLGEMERDCLIAYGASMLLIERLMVSSDEFKVDVCTGCGVIGSKGWCQKCRSSKSMANIKIPYACKLLFQELQSMNIVPRLDLARYTE | not soluble
19 | MLILGIDTSTKICTCSIFDSENGVIAETSLSVKKNHSNIVMPIIDNLFKISDLTINDIDKIAVAIGPGSFTGVRIALGIAKGLAMALNKPLIAINELDILEAIASGNENEIIPLIDARKERVYYKYQNKYVDDYLINLTSNFDKNKKYIFVGDGAINYKNILKDNLGENAIILPMYNSFPRASILCELALNKEEANIYTLEPEYISKSRAEKHFLEHHHHHH | soluble
